Assays:
human GATA2 (human) = human GATA2 (human) (UniProt P23769); experiment: cell-based or functional assay
human TFII-I (human) = human TFII-I (human) (UniProt P78347); experiment: cell-based or functional assay
human TFII-I (human), sequence (P78347 2-998 limits assumed): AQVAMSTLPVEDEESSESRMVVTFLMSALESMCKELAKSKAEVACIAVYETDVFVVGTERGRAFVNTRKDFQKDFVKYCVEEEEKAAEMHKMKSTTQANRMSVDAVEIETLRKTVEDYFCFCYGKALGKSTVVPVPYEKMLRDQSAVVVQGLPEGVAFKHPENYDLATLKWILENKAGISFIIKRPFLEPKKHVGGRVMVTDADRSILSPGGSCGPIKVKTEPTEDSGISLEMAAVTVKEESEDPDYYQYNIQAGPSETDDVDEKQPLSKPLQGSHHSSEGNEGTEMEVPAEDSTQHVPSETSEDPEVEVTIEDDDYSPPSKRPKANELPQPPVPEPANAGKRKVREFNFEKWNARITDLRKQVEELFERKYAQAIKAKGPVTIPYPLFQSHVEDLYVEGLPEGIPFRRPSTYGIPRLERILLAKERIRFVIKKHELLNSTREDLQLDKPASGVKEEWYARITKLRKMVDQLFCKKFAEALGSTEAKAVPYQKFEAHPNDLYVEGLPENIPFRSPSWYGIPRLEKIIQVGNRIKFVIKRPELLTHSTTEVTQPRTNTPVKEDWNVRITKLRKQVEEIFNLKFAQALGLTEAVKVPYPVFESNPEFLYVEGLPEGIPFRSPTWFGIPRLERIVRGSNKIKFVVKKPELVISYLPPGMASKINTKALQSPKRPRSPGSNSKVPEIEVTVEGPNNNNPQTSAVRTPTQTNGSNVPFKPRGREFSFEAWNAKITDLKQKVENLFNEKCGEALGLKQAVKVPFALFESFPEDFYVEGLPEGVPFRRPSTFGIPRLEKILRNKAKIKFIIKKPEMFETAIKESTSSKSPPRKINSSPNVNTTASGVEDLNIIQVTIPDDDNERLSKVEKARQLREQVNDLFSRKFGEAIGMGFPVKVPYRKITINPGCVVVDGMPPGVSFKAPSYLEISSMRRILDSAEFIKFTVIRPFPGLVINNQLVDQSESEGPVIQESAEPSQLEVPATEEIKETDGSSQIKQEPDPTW

human GATA2 (human), sequence (P23769 whole entry): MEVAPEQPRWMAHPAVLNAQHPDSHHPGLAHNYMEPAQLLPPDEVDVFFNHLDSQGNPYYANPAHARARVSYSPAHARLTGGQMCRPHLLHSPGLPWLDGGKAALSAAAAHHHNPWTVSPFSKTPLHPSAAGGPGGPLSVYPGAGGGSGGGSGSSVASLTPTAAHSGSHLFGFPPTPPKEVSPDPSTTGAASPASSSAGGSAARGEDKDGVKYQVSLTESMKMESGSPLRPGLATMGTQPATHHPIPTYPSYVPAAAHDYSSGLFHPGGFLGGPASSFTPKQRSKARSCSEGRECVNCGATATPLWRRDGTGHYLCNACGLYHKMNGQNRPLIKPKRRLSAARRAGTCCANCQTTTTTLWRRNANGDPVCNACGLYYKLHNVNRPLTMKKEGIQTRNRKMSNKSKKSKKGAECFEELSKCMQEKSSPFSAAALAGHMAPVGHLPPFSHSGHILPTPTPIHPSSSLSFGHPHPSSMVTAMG

- GATA2 levels in the nucleus of p190RhoGAP knockdown cells relative to control cells (immunoblotting, fluorescence microscopy) (human GATA2 (human)): > 10 fold
- TFII-I protein levels in the nuclear fraction of p190RhoGAP knockdown HMVE cells (immunoblot, fluorescence microscopy) (human TFII-I (human)): 1.5 fold
B1: human p190RhoGAP (protein)
chain: MMMARKQDVRIPTYNISVVGLSGTEKEKGQCGIGKSCLCNRFVRPSADEFHLDHTSVLSTSDFGGRVVNNDHFLYWGEVSRSLEDCVECKMHIVEQTEFIDDQTFQPHRSTALQPYIKRAAATKLASAEKLMYFCTDQLGLEQDFEQKQMPDGKLLVDGFLLGIDVSRGMNRNFDDQLKFVSNLYNQLAKTKKPIVVVLTKCDEGVERYIRDAHTFALSKKNLQVVETSARSNVNVDLAFSTLVQLIDKSRGKTKIIPYFEALKQQSQQIATAKDKYEWLVSRIVKNHNENWLSVSRKMQASPEYQDYVYLEGTQKAKKLFLQHIHRLKHEHIERRRKLYLAALPLAFEALIPNLDEIDHLSCIKAKKLLETKPEFLKWFVVLEETPWDATSHIDNMENERIPFDLMDTVPAEQLYEAHLEKLRNERKRVEMRRAFKENLETSPFITPGKPWEEARSFIMNEDFYQWLEESVYMDIYGKHQKQIIDKAKEEFQELLLEYSELFYELELDAKPSKEKMGVIQDVLGEEQRFKALQKLQAERDALILKHIHFVYHPTKETCPSCPACVDAKIEHLISSRFIRPSDRNQKNSLSDPNIDRINLVILGKDGLARELANEIRALCTNDDKYVIDGKMYELSLRPIEGNVRLPVNSFQTPTFQPHGCLCLYNSKESLSYVVESIEKSRESTLGRRDNHLVHLPLTLILVNKRGDTSGETLHSLIQQGQQIASKLQCVFLDPASAGIGYGRNINEKQISQVLKGLLDSKRNLNLVSSTASIKDLADVDLRIVMCLMCGDPFSADDILFPVLQSQTCKSSHCGSNNSVLLELPIGLHKKRIELSVLSYHSSFSIRKSRLVHGYIVFYSAKRKASLAMLRAFLCEVQDIIPIQLVALTDGAVDVLDNDLSREQLTEGEEIAQEIDGRFTSIPCSQPQHKLEIFHPFFKDVVEKKNIIEATHMYDNAAEACSTTEEVFNSPRAGSPLCNSNLQDSEEDIEPSYSLFREDTSLPSLSKDHSKLSMELEGNDGLSFIMSNFESKLNNKVPPPVKPKPPVHFEITKGDLSYLDQGHRDGQRKSVSSSPWLPQDGFDPSDYAEPMDAVVKPRNEEENIYSVPHDSTQGKIITIRNINKAQSNGSGNGSDSEMDTSSLERGRKVSIVSKPVLYRTRCTRLGRFASYRTSFSVGSDDELGPIRKKEEDQASQGYKGDNAVIPYETDEDPRRRNILRSLRRNTKKPKPKPRPSITKATWESNYFGVPLTTVVTPEKPIPIFIERCIEYIEATGLSTEGIYRVSGNKSEMESLQRQFDQDHNLDLAEKDFTVNTVAGAMKSFFSELPDPLVPYNMQIDLVEAHKINDREQKLHALKEVLKKFPKENHEVFKYVISHLNKVSHNNKVNLMTSENLSICFWPTLMRPDFSTMDALTATRTYQTIIELFIQQCPFFFYNRPITEPPGARPSSPSAVASTVPFLTSTPVTSQPSPPQSPPPTPQSPMQPLLPSQLQAEHTL

— patent US20110135632A1
